Conditions: Escherichia coli (strain K12); pH 9; 50 °C; Thermal; DSC; Sodium tetraborate 1 mM; reversible: yes; whole UniProt chain shown

B1: Tryptophan synthase alpha chain wild type, P0A877 (protein)
chain: MERYESLFAQLKERKEGAFVPFVTLGDPGIEQSLKIIDTLIEAGADALELGIPFSDPLADGPTIQNATLRAFAAGVTPAQCFEMLALIRQKHPTIPIGLLMYANLVFNKGIDEFYAQCEKVGVDSVLVADVPVEESAPFRQAALRHNVAPIFICPPNADDDLLRQIASYGRGYTYLLSRAGVTGAENRAALPLNHLVAKLKEYNAAPPLQGFGISAPDQVKAAIDAGAAGAISGSAIVKIIEQHINEPEKMLAALKVFVQPMKAATRS
- heat capacity change of unfolding: 4.81 kcal/mol/K
- unfolding free energy: 1.17 kcal/mol
